B1: Chlamydia muridarum native major outer membrane protein (nMOMP), from adherent HeLa 229 cells (natural protein)
chain: LPVGNPAEPSLMIDGILWEGFGGDPCDPCTTWCDAISLRLGYYGDFVFDRVLKTDVNKQFEMGAAPTGDADLTTAPTPASRENPAYGKHMQDAEMFTNAAYMALNIWDRFDVFCTLGATSGYLKGNSAAFNLVGLFGRDETAVAADDIPNVSLSQAVVELYTDTAFAWSVGARAALWECGCATLGASFQYAQSKPKVEELNVLCNAAEFTINKPKGYVGQEFPLNIKAGTVSATDTKDASIDYHEWQASLALSYRLNMFTPYIGVKWSRASFDADTIRIAQPKLETSILKMTTWNPTISGSGIDVDTKITDTLQIVSLQLNKMKSRKSCGLAIGTTIVDADKYAVTVETRLIDERAAHVNAQFRF
B2: Chlamydia trachomatis Serovar D native major outer membrane protein (nMOMP), from adherent HeLa 229 cells (natural protein)
chain: LPVGNPAEPSLMIDGILWEGFGGDPCDPCATWCDAISMRVGYYGDFVFDRVLKTDVNKEFQMGAKPTTDTGNSAAPSTLTARENPAYGRHMQDAEMFTNAACMALNIWDRFDVFCTLGATSGYLKGNSASFNLVGLFGDNENQKTVKAESVPNMSFDQSVVELYTDTTFAWSVGARAALWECGCATLGASFQYAQSKPKVEELNVLCNAAEFTINKPKGYVGKEFPLDLTAGTDAATGTKDASIDYHEWQASLALSYRLNMFTPYIGVKWSRASFDADTIRIAQPKSATAIFDTTTLNPTIAGAGDVKTGAEGQLGDTMQIVSLQLNKMKSRKSCGIAVGTTIVDADKYAVTVETRLIDERAAHVNAQFRF
B3: Chlamydia trachomatis Serovar E native major outer membrane protein (nMOMP), from adherent HeLa 229 cells (natural protein)
chain: LPVGNPAEPSLMIDGILWEGFGGDPCDPCTTWCDAISMRMGYYGDFVFDRVLKTDVNKEFQMGDKPTSTTGNATAPTTLTARENPAYGRHMQDAEMFTNAACMALNIWDRFDVFCTLGASSGYLKGNSASFNLVGLFGDNENQSTVKTNSVPNMSLDQSVVELYTDTAFSWSVGARAALWECGCATLGASFQYAQSKPKVEELNVLCNAAEFTINKPKGYVGQEFPLALIAGTDAATGTKDASIDYHEWQASLALSYRLNMFTPYIGVKWSRASFDADTIRIAQPKSATAIFDTTTLNPTIAGAGDVKASAEGQLGDTMQIVSLQLNKMKSRKSCGIAVGTTIVDADKYAVTVETRLIDERAAHVNAQFRF
B4: Chlamydia trachomatis Serovar F native major outer membrane protein (nMOMP), from adherent HeLa 229 cells (natural protein)
chain: LPVGNPAEPSLMIDGILWEGFGGDPCDPCTTWCDAISMRMGYYGDFVFDRVLKTDVNKEFEMGEALAGASGNTTSTLSKLVERTNPAYGKHMQDAEMFTNAACMTLNIWDRFDVFCTLGATSGYLKGNSASFNLVGLFGDGVNATKPAADSIPNVQLNQSVVELYTDTTFAWSVGARAALWECGCATLGASFQYAQSKPKIEELNVLCNAAEFTINKPKGYVGKEFPLDLTAGTDAATGTKDASIDYHEWQASLSLSYRLNMFTPYIGVKWSRASFDSDTIRIAQPRLVTPVVDITTLNPTIAGCGSVAGANTEGQISDTMQIVSLQLNKMKSRKSCGIAVGTTIVDADKYAVTVETRLIDERAAHVNAQFRF
B5: Chlamydia trachomatis Serovar E native major outer membrane protein (nMOMP), from CHO suspension cells (natural protein)
chain: B3 chain
B6: Chlamydia trachomatis Serovar E native major outer membrane protein (nMOMP), from HeLa suspension cells (natural protein)
chain: B3 chain

Target: the molecule itself
Test: SEC-MALS

Protein	stoichiometry N
B1	2.59
B2	2.8
B3	2.52
B4	2.85
B5	2.27
B6	2.3

Source: PMC6201732 (Protein Science : A Publication of the Protein Society, 2018)
